Data on two molecules can be found in US20100111957A1 (TECHNION RESEARCH AND DEVELOPMENT FOUNDATION, published 2010).

Test [1] deals with T1, recombinant biotinylated single-chain HLA-A2/pp65 495-503 complex (human; cytomegalovirus (CMV)). The test is described as follows: SPR, Biacore 2000; biotinylated HLA-A2/pp65 on streptavidin chip. A general note: SPR reads the build-up and loss of mass on a sensor chip optically.
Test [2] addresses T1, recombinant biotinylated single-chain ….

B1: H9 Fab (soluble recombinant Fab, monomer) (Fab, V domains shown)
VH: EVQLVQSGAEVKKPGSSVKVSCKASGGTFSSYAISWVRQAPGQGLEWMGGIIPIFGTANYAQKFQGRVTITADESTSTAYMELSSLRSEDTAVYYCARGDLYYYDSSGYPRYYFDYWGQGTLVTVSS
VL: ETTLTQSPGTLSLSPGERATLSCRASQSVSSSYLAWYQQKPGQAPRLVIYGASSRATGIPDRFSGSGSGTDFTLTISRLEPEDFAVYYCQHYSTSPGFTFGQGTKLEIRR
notes: also called Fab H9; H9 Fab monomer
The koff is a measure of how fast the partners let go of each other. As usually defined, the kon is the rate constant with which the complex forms. Usually Kd stands for the equilibrium constant for the complex coming apart. With B1, in test [1], the koff turned out to be 0.000879 s⁻¹ and the kon stood at 105000 M⁻¹ s⁻¹. For the same molecule, the equilibrium dissociation constant (Kd) in test [2] came out at 8 nM.

B2: H9 whole IgG antibody (H9 Fab-derived IgG1, kappa) (antibody, V domains shown)
VH: EVQLVQSGAEVKKPGSSVKVSCKASGGTFSSYAISWVRQAPGQGLEWMGGIIPIFGTANYAQKFQGRVTITADESTSTAYMELSSLRSEDTAVYYCARGDLYYYDSSGYPRYYFDYWGQGTLVTVSS
VL: ETTLTQSPGTLSLSPGERATLSCRASQSVSSSYLAWYQQKPGQAPRLVIYGASSRATGIPDRFSGSGSGTDFTLTISRLEPEDFAVYYCQHYSTSPGFTFGQGTKLEIRR
notes: also called H9 IgG; H9 IgG Ab
Regarding B2, in test [1], the koff amounted to 0.00352 s⁻¹ and the kon came to 599000 M⁻¹ s⁻¹. For the same molecule, the Kd in test [2] amounted to 5 nM.
